Test results as given in FireProtDB (doi:10.1021/bi00093a001).

B1: Subtilisin-chymotrypsin inhibitor-2A, P01053 (parent)
chain: MSSVEKKPEGVNTGAGDRHNLKTEWPELVGKSVEEAKKVILQDKPEAQIIVLPVGTIVTMEYRIDRVRLFVDKLDNIAQVPRVG

Variants of: B1
Conditions: Hordeum vulgare, MES 450 mM, reversible: yes, structure 2CI2, whole UniProt chain shown; for ddG of mutation (higher = less stable) / heat capacity change of unfolding / denaturant m value / denaturant midpoint (higher = more stable) / unfolding free energy: 25 °C

Row | Variant | ddG of mutation (higher = less stable) (pH 3.5, Thermal, DSC) | heat capacity change of unfolding (pH 3.5, Thermal, DSC) | Tm (pH 3.5, Thermal, DSC) | change of melting temperature, mutant - wild type (higher = more stable) (pH 3.5, Thermal, DSC) | unfolding enthalpy (calorimetric) (pH 3.5, Thermal, DSC) | unfolding enthalpy (van 't Hoff) (pH 3.5, Thermal, DSC) | ddG of mutation (higher = less stable) (pH 6.3, GdnHCl, Fluorescence) | denaturant m value (pH 6.3, GdnHCl, Fluorescence) | denaturant midpoint (higher = more stable) (pH 6.3, GdnHCl, Fluorescence) | unfolding free energy (pH 6.3, GdnHCl, Fluorescence) | Tm (pH 3, Thermal, DSC) | change of melting temperature, mutant - wild type (higher = more stable) (pH 3, Thermal, DSC) | unfolding enthalpy (calorimetric) (pH 3, Thermal, DSC) | unfolding enthalpy (van 't Hoff) (pH 3, Thermal, DSC) | ddG of mutation (higher = less stable) (pH 3, Thermal, DSC) | heat capacity change of unfolding (pH 3, Thermal, DSC)
1 | MSSVEKKPEGVNTGAGDRHNLKTEWPELVGKSVEEAKKVILQDKPEAQAIVLPVGTIVTMEYRIDRVRLFVDKLDNIAQVPRVG [I49A] | 3.89 kcal/mol | 0.72 kcal/mol/K | 52.5 °C | -21.3 °C | 44.9 kcal/mol | 46.9 kcal/mol | 3.4 kcal/mol | 2.07 kcal/mol/M | 2 M | 4.14 kcal/mol |  |  |  |  |  | 
2 | MSSVEKKPEGVNTGAGDRHNLKTEWPELVGKSVEEAKKVILQDKPEAQVIVLPVGTIVTMEYRIDRVRLFVDKLDNIAQVPRVG [I49V] | 0.92 kcal/mol | 0.72 kcal/mol/K | 69.1 °C | -4.7 °C | 62.4 kcal/mol | 61.6 kcal/mol | 0.75 kcal/mol | 1.99 kcal/mol/M | 3.43 M | 6.8 kcal/mol |  |  |  |  |  | 
3 | MSSVEKKPEGVNTGAGDRHNLKTEWPEAVGKSVEEAKKVILQDKPEAQIIVLPVGTIVTMEYRIDRVRLFVDKLDNIAQVPRVG [L28A] |  |  |  |  |  |  | 1.91 kcal/mol | 2.15 kcal/mol/M | 2.62 M | 5.63 kcal/mol | 48.5 °C | -15.5 °C | 45 kcal/mol | 44.4 kcal/mol |  | 
4 | MSSVEKKPEGVNTGAGDRHNLKTEWPELVGKSVEEAKKVVLQDKPEAQIIVLPVGTIVTMEYRIDRVRLFVDKLDNIAQVPRVG [I40V] |  |  | 67.3 °C | -6.5 °C | 61.5 kcal/mol | 62.5 kcal/mol | 0.91 kcal/mol | 1.99 kcal/mol/M | 3.33 M | 6.63 kcal/mol | 57.7 °C | -6.3 °C | 53.7 kcal/mol | 54.8 kcal/mol | 1.2 kcal/mol | 0.72 kcal/mol/K
5 | MSSVEKKPEGVNTGAGDRHNLKTEWPELVGKSVEEAKKVILQDKPEAQIIVLPVGTIVTMEYRIDRVRLFADKLDNIAQVPRVG [V71A] |  |  |  |  |  |  | 1.13 kcal/mol | 2.15 kcal/mol/M | 2.98 M | 6.41 kcal/mol | 51.3 °C | -12.7 °C | 48.5 kcal/mol | 49.7 kcal/mol | 2.17 kcal/mol | 0.72 kcal/mol/K
6 | MSSVEKKPEGVNTGAGDRHNLKTEWPELVGKSVEEAKKVILQDKPEAQIIVLPVGTIVTMEYRIDRVRAFVDKLDNIAQVPRVG [L69A] | 3.74 kcal/mol | 0.72 kcal/mol/K | 52.3 °C | -21.5 °C | 46.7 kcal/mol | 46.9 kcal/mol | 3.56 kcal/mol | 1.98 kcal/mol/M | 2.01 M | 3.98 kcal/mol |  |  |  |  |  | 
7 | MSSVEKKPEGVNTGAGDRHNLKTEWPELVGKSVEEAKKVILQDKPEAQIIVLPVGTIVTMEYRIDRARLFVDKLDNIAQVPRVG [V67A] |  |  | 45.3 °C | -28.5 °C | 37.3 kcal/mol | 35.8 kcal/mol | 4.97 kcal/mol | 1.76 kcal/mol/M | 1.46 M | 2.57 kcal/mol |  |  |  |  |  | 
8 | MSSVEKKPEGVNTGAGDRHNLKTEWPELVGKSVEEAKKVILQDKPEAQIIVLPVGTIVTMEYRIDRVRLFVDKLDNVAQVPRVG [I77V] |  |  |  |  |  |  |  |  |  |  | 65.4 °C | 1.4 °C | 60.5 kcal/mol | 60.5 kcal/mol | -0.09 kcal/mol | 0.72 kcal/mol/K
9 | MSSVEKKPEGVNTGAGDRHNLKTEWPELVGKSVEEAKKVILQDKPEAQIIVLPVGTIVTMEYRIDRVRLFVDKLDNAAQVPRVG [I77A] | 4.34 kcal/mol | 0.72 kcal/mol/K | 50.3 °C | -23.5 °C | 41 kcal/mol | 46.8 kcal/mol | 4.09 kcal/mol | 1.93 kcal/mol/M | 1.79 M | 3.45 kcal/mol | 38.3 °C | -25.7 °C | 30.2 kcal/mol | 37.2 kcal/mol | 4.23 kcal/mol | 0.72 kcal/mol/K
10 | MSSVEKKPEGVNTGAGDRHNLKTEWPELVGKSVEEAKKAILQDKPEAQIIVLPVGTIVTMEYRIDRVRLFVDKLDNIAQVPRVG [V39A] |  |  |  |  |  |  | 0 kcal/mol | 2.01 kcal/mol/M | 3.75 M | 7.54 kcal/mol | 61.1 °C | -2.9 °C | 58.5 kcal/mol | 58.6 kcal/mol | 0.46 kcal/mol | 0.72 kcal/mol/K
11 | MSSVEKKPEGVNTGAGDRHNLKTEWPELVGKSVEEAKKVILQDKPEAQAIVLPVGTIVTMEYRIDRVRLFVDKLDNVAQVPRVG [I49A I77V] | 4.69 kcal/mol | 0.72 kcal/mol/K |  |  |  |  | 4.08 kcal/mol | 1.83 kcal/mol/M | 1.9 M | 3.46 kcal/mol |  |  |  |  |  | 
